Test results as given in publication PMC4191077, “Modeling hemoglobin and hemoglobin:haptoglobin complex clearance in a non-rodent species–pharmacokinetic and therapeutic implications” (Frontiers in Physiology, 2014).

Target: T1, Dog haptoglobin (purified) (dog, UniProt P19006 1-83; P19006 85-329)
T1 construct: haptoglobin alpha chain, dog; haptoglobin beta chain, dog; The supplier is named only for the fluorescent labelling; also called dog Hp; source: bought: Lee Biosolutions (St. Louis, Missouri USA); copies: 2 + 2
T1 sequence (looked up) 1: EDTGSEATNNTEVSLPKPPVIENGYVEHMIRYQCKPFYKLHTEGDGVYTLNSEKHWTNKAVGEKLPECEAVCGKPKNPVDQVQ
T1 sequence (looked up) 2: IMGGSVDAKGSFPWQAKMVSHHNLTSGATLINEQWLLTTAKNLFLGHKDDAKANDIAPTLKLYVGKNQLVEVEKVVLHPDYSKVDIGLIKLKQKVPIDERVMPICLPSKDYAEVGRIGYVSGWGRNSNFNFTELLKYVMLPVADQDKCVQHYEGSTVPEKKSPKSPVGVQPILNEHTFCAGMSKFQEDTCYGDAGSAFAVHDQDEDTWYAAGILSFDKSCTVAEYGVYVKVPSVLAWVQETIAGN
Assay: SEC; purified standards of Hb and Hb:Hp complexes on a BioSep-SEC-S3000 column (600 x 7.5 mm), detection at 405 nm
Conditions: both partners purified

binding result: binds
B1: Dog hemoglobin (natural protein)
chain 1: not shown
chain 2: not shown
notes: hemoglobin subunit alpha, dog; hemoglobin subunit beta, dog; also called dog Hb; purified dog Hb; source: prepared using a standardized method previously described (Palmer et al., 2009)
